Data from paper PMC7437921.

What was measured:
Assay in all cases: FRET or BRET
[1] = molecular target: CXCR4(Δ1–25), HA-free (tagless) (human) (UniProt P61073)
[2] = molecular target: CXCR4(Δ1–15), HA-free (tagless) (human) (UniProt P61073)
[3] = molecular target: CXCR4(R30Q) (human) (UniProt P61073)
[4] = molecular target: CXCR4(D187A) (human) (UniProt P61073)

renilla GFP fused to mini-Gαsi
efficacy (Emax) remaining, % of WT CXCR4 [1]: 23%
efficacy (Emax) remaining, % of WT CXCR4 [2]: 33%
decrease in efficacy (Emax) vs WT CXCR4 [3]: 30%
efficacy (Emax) remaining, % of WT CXCR4 [4]: 30%
